In patent US20240336909:

Assays:
[1] = system: AxCT mask27 EGFR EH104 L001 version 1
[2] = system: AxCT mask27 EGFR EH104 L040 version 1
[3] = system: AxCT mask27 EGFR EH104 L041 version 1
[4] = system: AxCT mask27 EGFR EH104 L043 version 1
[5] = system: AxCT mask27 EGFR EH104 L054 version 1
[6] = system: AxCT mask27 EGFR EH104 L055 version 1
[7] = system: AxCT mask27 EGFR EH104 L056 version 1
[8] = system: AxCT mask27 EGFR EH104 L057 version 1
[9] = system: AxCT mask27 EGFR EH104 L058 version 1
[10] = system: AxCT mask27 EGFR EH104 L059 version 1
[11] = system: AxCT mask27 EGFR EH104 L060 version 1
[12] = system: AxCT mask27 EGFR EH104 L061 version 1
[13] = system: AxCT mask27 EGFR EH104 L062 version 1
[14] = system: AxCT mask27 EGFR EH104 L063 version 1
[15] = system: AxCT mask27 EGFR EH104 L064 version 1
[16] = system: AxCT mask27 EGFR EH104 L065 version 1
[17] = system: AxCT mask27 EGFR EH104 L066 version 1
[18] = system: AxCT mask27 EGFR EH104 L067 version 1
[19] = system: AxCT mask27 EGFR EH104 L068 version 1
[20] = system: AxCT mask27 EGFR EH104 L069 version 1
[21] = system: AxCT mask27 EGFR EH104 L070 version 1
[22] = system: AxCT mask27 EGFR EH104 L071 version 1
[23] = system: AxCT mask27 EGFR EH104 L072 version 1
[24] = system: AxCT mask27 EGFR EH104 L073 version 1
[25] = system: AxCT mask27 EpCAM H90 L001 version 1
[26] = system: AxCT mask27 EpCAM H90.2 L040 version 1
[27] = system: AxCT mask27 EpCAM H90.2 L041 version 1
[28] = system: AxCT mask27 EpCAM H90.2 L043 version 1
[29] = system: AxCT mask27 EpCAM H90.2 L059 version 1
[30] = system: AxCT mask27 EpCAM H90.2 L060 version 1
[31] = system: AxCT mask27 EpCAM H90.2 L061 version 1
[32] = system: AxCT mask27 EpCAM H90.2 L063 version 1
[33] = system: AxCT mask27 EpCAM H90.2 L064 version 1
[34] = system: AxCT mask27 EpCAM H90.2 L073 version 1
[35] = system: AxCT mask27 EpCAM H90.2 L075 version 1
[36] = system: AxCT mask27 EpCAM H90.2 L076 version 1
[37] = system: AxCT mask27 EpCAM H90.2 NCLV

Sequence of MMP-8 (chain, as listed by the source): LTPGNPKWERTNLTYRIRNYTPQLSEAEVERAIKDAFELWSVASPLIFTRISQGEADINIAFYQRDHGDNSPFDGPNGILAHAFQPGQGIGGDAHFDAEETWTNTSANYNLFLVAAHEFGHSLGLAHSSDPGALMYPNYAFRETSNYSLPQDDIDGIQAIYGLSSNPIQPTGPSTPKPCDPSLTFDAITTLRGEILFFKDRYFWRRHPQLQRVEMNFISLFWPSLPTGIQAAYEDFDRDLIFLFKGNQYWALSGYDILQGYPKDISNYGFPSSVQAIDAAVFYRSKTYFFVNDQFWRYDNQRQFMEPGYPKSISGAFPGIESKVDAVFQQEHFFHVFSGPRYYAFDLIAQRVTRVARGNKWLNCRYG
Sequence of MMP-9 (chain, as listed by the source): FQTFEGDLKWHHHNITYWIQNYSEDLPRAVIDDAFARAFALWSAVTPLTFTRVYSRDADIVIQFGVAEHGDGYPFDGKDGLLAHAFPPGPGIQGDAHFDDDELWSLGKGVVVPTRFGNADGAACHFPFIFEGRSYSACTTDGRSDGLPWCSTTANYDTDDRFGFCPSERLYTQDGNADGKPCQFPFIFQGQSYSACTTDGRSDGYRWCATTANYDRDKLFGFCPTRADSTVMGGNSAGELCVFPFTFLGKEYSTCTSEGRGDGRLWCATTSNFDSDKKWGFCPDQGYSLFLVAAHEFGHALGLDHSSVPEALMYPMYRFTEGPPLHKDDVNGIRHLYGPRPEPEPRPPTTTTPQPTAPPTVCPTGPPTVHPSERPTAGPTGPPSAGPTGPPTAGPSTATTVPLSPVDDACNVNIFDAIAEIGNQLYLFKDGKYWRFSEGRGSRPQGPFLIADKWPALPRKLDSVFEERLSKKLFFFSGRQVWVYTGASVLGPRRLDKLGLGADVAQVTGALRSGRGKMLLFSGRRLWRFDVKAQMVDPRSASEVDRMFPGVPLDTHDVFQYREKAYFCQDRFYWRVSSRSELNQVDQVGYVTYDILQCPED

Row | Substance | Percent cleavage [1] | Percent cleavage [2] | Percent cleavage [3] | Percent cleavage [4] | Percent cleavage [5] | Percent cleavage [6] | Percent cleavage [7] | Percent cleavage [8] | Percent cleavage [9] | Percent cleavage [10] | Percent cleavage [11] | Percent cleavage [12] | Percent cleavage [13] | Percent cleavage [14] | Percent cleavage [15] | Percent cleavage [16] | Percent cleavage [17] | Percent cleavage [18] | Percent cleavage [19] | Percent cleavage [20] | other results
1 | MMP-8 | 44% | 6% | 0% | 0% | 8% | 29% | 7% | 11% | 0% | 18% | 0% | 15% | 6% | 0% | 7% | 18% | 0% | 13% | 0% | 16% | Percent cleavage [21]: 0%; Percent cleavage [22]: 20%; Percent cleavage [23]: 0%; Percent cleavage [24]: 0%; Percent cleavage [25]: 61%; Percent cleavage [26]: 0%; Percent cleavage [27]: 0%; Percent cleavage [28]: 0%; Percent cleavage [29]: 25%; Percent cleavage [30]: 0%; Percent cleavage [31]: 25%; Percent cleavage [32]: 0%; Percent cleavage [33]: 8%; Percent cleavage [34]: 0%; Percent cleavage [35]: 0%; Percent cleavage [36]: 0%; Percent cleavage [37]: 0%
2 | MMP-9 | 74% | 63% | 59% | 20% | 9% | 75% | 52% | 57% | 27% | 32% | 7% | 54% | 63% | 21% | 13% | 70% | 29% | 50% | 19% | 29% | Percent cleavage [21]: 0%; Percent cleavage [22]: 46%; Percent cleavage [23]: 51%; Percent cleavage [24]: 11%; Percent cleavage [25]: 80%; Percent cleavage [26]: 60%; Percent cleavage [27]: 57%; Percent cleavage [28]: 7%; Percent cleavage [29]: 19%; Percent cleavage [30]: 0%; Percent cleavage [31]: 36%; Percent cleavage [32]: 8%; Percent cleavage [33]: 0%; Percent cleavage [34]: 0%; Percent cleavage [35]: 0%; Percent cleavage [36]: 17%; Percent cleavage [37]: 0%
